The text below walks through data of US20220064276A1 (SCHOLAR ROCK, published 2022).

Experiment [1] addresses T1, LTBP-proTGFβ1: transfected human proTGFβ1 presented by endogenous LTBP1/3 of LN229 cells (human). Description: cell-based or functional assay.
The target in experiment [2] is T2, mouse LTBP1-proTGFβ1 complex (mouse, UniProt Q8CG19 339-1712; P04202 30-390). Put plainly: cell-based or functional assay.
The target in experiment [3] is T3, human LTBP1-proTGFβ1 complex (human, UniProt Q14766 347-1721; P01137 30-390).
T3 construct: Large latent complex: one presenting molecule disulfide-linked to a proTGFβ1 dimer; also called Hu LTBP1-proTGFβ1; huLTBP1 proTGFβ1
Put plainly: Octet BLI, IgG captured. On the procedure:
(§1) LTBP complex-specific antibodies from the first round of affinity maturation/optimization (SR-AB14, SR-AB16, SR-AB17, SR-AB18, SR-AB19) were selected for a second round of affinity maturation/optimization (i.e., CDR-H3 mutagenesis as described herein) and particular progeny antibodies (SR-AB20, SR-AB21, SR-AB22, SR-AB23, SR-AB24, SR-AB25, SR-AB26, SR-AB27, SR-AB28, and SR-AB29) were assessed for their ability to bind various proTGFβ1 constructs. Binding affinities of the optimized antibodies were measured by Octet against human LTBP1-proTGFβ1, human LTBP3-proTGFbl, mouse LTBP1-proTGFβ1, mouse LTBP3-proTGFbl, and GARP-proTGFβ1 complexes, essentially as described in Example 6. […] The antigens were allowed to associate for 3 minutes followed by a 5-minute dissociation. Kinetics buffer (ForteBio®) was used throughout the experiment, and KD was determined using a 1:1 fitting model for each antibody antigen pair.
Background: In BLI a coated tip is dipped into the sample, and binding shifts an interference pattern.

For experiment [4], the target named is T2, mouse LTBP1-proTGFβ1 complex. Put plainly: Octet BLI, IgG captured. The protocol:
as §1

Experiment [5] concerns the target T4, mouse LTBP3-proTGFβ1 complex (mouse, UniProt Q61810 41-1245; P04202 30-390, limits assumed).
T4 construct: Exemplary entries; also called Mo LTBP3-proTGFβ1; Murine LTBP3 proTGFb1
Description: Octet BLI, IgG captured. The protocol:
as §1

Experiment [6] has as its target T3, human LTBP1-proTGFβ1 complex. Description: SPR Biacore 8K, Fab over captured antigen. The protocol:
(§2) A Biacore 8K system was employed to determine the monovalent binding affinity and the kinetic parameters for antigen binding of test antibodies. Association and dissociation kinetics of Fab fragments SR-AB42-HuFab, SR-AB63-HuFab and SR-AB43-HuFab to antigen complexes were measured, and resulting ka, kd and KD are provided below. Briefly, the binding kinetics were evaluated by surface plasmon resonance using Biacore 8K (GE Healthcare). Biotinylated capture antigens were immobilized to the chip (10 nM, ˜200 RU loading). A Biotin CAPture sensor chip was used to capture the biotinylated antigens. […] 0 nM was used as a reference. […] 0 nM was used as a reference. Multi-cycle kinetics was employed where each analyte concentration was injected in a separate cycle and the sensor chip surface was regenerated after each cycle. A11 the assays were carried out in freshly prepared 1× HBS-EP+ buffer (10 mM HEPES, 150 mM NaCl, 3 mM EDTA, 0.05% Tween20, pH 7.4). Data were fit globally to a 1:1 binding model to obtain the kinetic parameters. The sensorgram for 0 nM analyte concentration was used as reference.

For experiment [7] the target is unchanged. Put plainly: SPR Biacore 8K, Fab over captured antigen, Rmax fixed. On the procedure: (§3) These experiments were performed using the Biacore 8K using the method “multi-cycle kinetics/affinity using Biotin CAPture kit.”
(§4) Data collection rate was set to 10 Hz and the Biotin CAPture step was performed for 300 seconds with a flow rate of 2 μL/minute. The Biotin CAPture reagent was used after a 1:5 dilution in 1× Biacore running buffer. Biotinylated ligands (the various complexes of TGFβ1) were utilized at a concentration of 10 nM and were immobilized to the sensor chip for 180 seconds with a flow rate of 10 μL/minute. […] Analyte contact time was 120 seconds and the dissociation time was 900 seconds. The regeneration cycle utilized was 120 seconds with a flow rate of 10 μL/minute.
(§5) The evaluation method used was “multi-cycle affinity using capture” and a 1:1 binding model was used. […] Global fits were utilized for every KD determination.
In general terms: SPR reads the build-up and loss of mass on a sensor chip optically.

Experiment [8] concerns the target T5, human LTBP3-proTGFβ1 complex (human, UniProt Q9NS15 44-1303; P01137 30-390, limits assumed).
T5 construct: Exemplary entries; also called Hu LTBP3-proTGFβ1; huLTBP3 proTGFb1
Described as above. On the procedure: as §3, §4, §5

Experiment [9] deals with T2, mouse LTBP1-proTGFβ1 complex. Described as above. On the procedure:
as §3, §4, §5

Experiment [10] deals with T4, mouse LTBP3-proTGFβ1 complex. The experiment is described as above. The protocol: as §3, §4, §5
Experiment [11] has as its target T6, human GARP-proTGFβ1 complex (human, UniProt Q14392 18-627; P01137 30-390, limits assumed).
T6 construct: Exemplary entries; also called Hu GARP-proTGFβ1; huGARP proTGFb1
The experiment is described as above. The protocol: as §3, §4, §5

For experiment [12], the target named is T7, human LRRC33-proTGFβ1 complex (human, UniProt Q86YC3 19-650; P01137 30-390, limits assumed).
T7 construct: Exemplary entries; also called huLRRC33 proTGFb1; HuLRRC33-ProTGFb1
The description is as above. The protocol: as §3, §4, §5

Experiment [13] has as its target T8, mouse GARP-proTGFβ1 complex (mouse, UniProt G3XA59 18-628; P04202 30-390, limits assumed).
T8 construct: Exemplary entries; also called MuGARP-ProTGFb1; Mu GARP-ProTGFβ1
The description is as above. On the procedure: as §3, §4, §5

For experiment [14], the target named is T9, mouse LRRC33-proTGFβ1 complex (mouse, UniProt Q8BMT4 20-651, limits assumed).
T9 construct: also called MuLRRC33-ProTGFb1; Mu LRRC33-ProTGFβ1
Described as above. On the procedure: as §3, §4, §5

Experiment [15] addresses T4, mouse LTBP3-proTGFβ1 complex. Put plainly: SPR Biacore 8K, Fab over captured antigen; mean of 2. The protocol: as §2
The target in experiment [16] is T1, LTBP-proTGFβ1: transfected human …. Put plainly: cell-based or functional assay. The source holds these as a separate data set.
Experiment [17] addresses T2, mouse LTBP1-proTGFβ1 complex. Description: cell-based or functional assay. The source holds these as a separate data set.
Experiment [18] deals with T3, human LTBP1-proTGFβ1 complex. Description: Octet BLI, IgG captured. On the procedure: (§6) Binding affinities of the optimized antibodies were measured by Octet against human LTBP1-proTGFβ1, human LTBP3-proTGFβ1, mouse LTBP1-proTGFβ1, mouse LTBP3-proTGFβ1, and GARP-proTGFβ1 complexes, essentially as described in Example 6. […] The antigens were allowed to associate for 3 minutes followed by a 5-minute dissociation. Kinetics buffer (ForteBio®) was used throughout the experiment, and KD was determined using a 1:1 fitting model for each antibody antigen pair.
This is another data set of the same source.

Experiment [19] concerns the target T5, human LTBP3-proTGFβ1 complex. Put plainly: Octet BLI, IgG captured. The protocol:
as §6

Experiment [20] addresses T2, mouse LTBP1-proTGFβ1 complex. Put plainly: Octet BLI, IgG captured. On the procedure: as §6
This is another data set of the same source.

For experiment [21], the target named is T4, mouse LTBP3-proTGFβ1 complex. Description: Octet BLI, IgG captured. On the procedure:
as §6
This is another data set of the same source.

The target of experiment [22] is T6, human GARP-proTGFβ1 complex. Put plainly: Octet (bio-layer interferometry), response at 200 nM antigen; 0.1 nm cutoff designates meaningful binding. The protocol: This experiment was performed at 200, 100, 50, and 25 nM human GARP proTGFb1 and human LTBP1 proTGFbl. […] Surface plasmon resonance (SPR)-based assays

One may read the Kd as the constant that tells how readily two partners part at equilibrium. Higher therefore signals lower affinity. Usually koff stands for the rate constant with which the complex falls apart. Higher therefore signals fast dissociation. Usually kon stands for the second-order rate constant of association.

Where a chain is given by its changes, count along the chain named. Where two headings read alike, the source gives them in different places.

T6 sequence (Q14392 18-627 limits assumed, chain 1 of 2): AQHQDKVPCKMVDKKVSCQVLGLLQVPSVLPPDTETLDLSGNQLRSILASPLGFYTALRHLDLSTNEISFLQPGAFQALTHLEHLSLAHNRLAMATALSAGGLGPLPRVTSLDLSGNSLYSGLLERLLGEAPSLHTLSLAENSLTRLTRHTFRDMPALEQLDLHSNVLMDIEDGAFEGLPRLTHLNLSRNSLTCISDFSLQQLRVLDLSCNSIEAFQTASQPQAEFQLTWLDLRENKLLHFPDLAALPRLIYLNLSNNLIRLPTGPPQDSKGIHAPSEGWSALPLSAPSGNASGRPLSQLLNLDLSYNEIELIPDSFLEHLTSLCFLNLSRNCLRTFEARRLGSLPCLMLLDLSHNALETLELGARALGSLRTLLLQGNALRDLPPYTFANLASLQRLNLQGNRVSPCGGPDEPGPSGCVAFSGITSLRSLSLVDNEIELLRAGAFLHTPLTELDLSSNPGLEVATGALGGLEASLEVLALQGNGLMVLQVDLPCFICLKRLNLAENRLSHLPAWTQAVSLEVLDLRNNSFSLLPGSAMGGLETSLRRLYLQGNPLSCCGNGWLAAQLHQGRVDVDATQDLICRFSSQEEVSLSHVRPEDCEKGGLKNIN
T6 sequence (P01137 30-390 limits assumed, chain 2 of 2): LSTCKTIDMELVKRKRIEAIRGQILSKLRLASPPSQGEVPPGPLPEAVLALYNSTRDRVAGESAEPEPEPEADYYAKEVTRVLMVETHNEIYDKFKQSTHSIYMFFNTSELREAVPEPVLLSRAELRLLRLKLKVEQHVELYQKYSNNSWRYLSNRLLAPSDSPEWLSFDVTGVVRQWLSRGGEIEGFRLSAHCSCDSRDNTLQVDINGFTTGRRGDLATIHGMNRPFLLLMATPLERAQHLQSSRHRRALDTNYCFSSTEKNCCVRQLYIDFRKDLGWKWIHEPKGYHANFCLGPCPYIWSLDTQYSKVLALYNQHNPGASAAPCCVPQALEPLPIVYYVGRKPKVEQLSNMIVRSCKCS
T5 sequence (Q9NS15 44-1303 limits assumed, chain 1 of 2): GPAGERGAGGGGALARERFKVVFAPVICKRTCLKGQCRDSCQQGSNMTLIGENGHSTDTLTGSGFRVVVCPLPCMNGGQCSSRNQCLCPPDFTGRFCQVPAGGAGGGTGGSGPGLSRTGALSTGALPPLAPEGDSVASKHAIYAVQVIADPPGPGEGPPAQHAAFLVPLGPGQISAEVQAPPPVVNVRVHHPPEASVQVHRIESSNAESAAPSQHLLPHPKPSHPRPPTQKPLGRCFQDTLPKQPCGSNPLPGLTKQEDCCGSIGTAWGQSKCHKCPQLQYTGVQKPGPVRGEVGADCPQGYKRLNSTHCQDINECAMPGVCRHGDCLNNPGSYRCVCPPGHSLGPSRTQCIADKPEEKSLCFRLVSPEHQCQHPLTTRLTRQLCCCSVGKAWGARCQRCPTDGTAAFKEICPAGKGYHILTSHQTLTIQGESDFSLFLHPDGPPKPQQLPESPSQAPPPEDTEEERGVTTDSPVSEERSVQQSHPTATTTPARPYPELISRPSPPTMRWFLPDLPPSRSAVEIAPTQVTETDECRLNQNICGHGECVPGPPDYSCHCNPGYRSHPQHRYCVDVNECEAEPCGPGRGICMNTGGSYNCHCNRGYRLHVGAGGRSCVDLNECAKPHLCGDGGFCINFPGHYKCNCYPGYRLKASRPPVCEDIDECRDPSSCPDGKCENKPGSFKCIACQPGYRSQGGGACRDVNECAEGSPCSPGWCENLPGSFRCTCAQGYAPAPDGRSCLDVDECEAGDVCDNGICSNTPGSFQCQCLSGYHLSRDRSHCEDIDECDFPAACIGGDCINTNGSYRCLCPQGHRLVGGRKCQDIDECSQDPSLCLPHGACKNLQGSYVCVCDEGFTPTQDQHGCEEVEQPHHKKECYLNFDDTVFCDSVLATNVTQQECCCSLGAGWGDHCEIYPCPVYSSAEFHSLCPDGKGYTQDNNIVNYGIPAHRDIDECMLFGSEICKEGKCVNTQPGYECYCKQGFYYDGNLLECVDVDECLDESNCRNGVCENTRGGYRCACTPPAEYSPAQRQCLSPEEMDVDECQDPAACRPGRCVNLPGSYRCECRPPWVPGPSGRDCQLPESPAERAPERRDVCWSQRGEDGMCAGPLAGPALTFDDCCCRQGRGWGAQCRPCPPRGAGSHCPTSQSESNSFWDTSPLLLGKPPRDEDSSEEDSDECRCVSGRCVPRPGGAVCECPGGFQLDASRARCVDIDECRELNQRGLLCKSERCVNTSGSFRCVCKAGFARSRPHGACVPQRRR
T5 sequence (P01137 30-390 limits assumed, chain 2 of 2): as the sequence (P01137 30-390 limits assumed, chain 2 of 2) above
T4 sequence (Q61810 other isoform, or with tags, fused parts or gaps limits assumed, chain 1 of 2): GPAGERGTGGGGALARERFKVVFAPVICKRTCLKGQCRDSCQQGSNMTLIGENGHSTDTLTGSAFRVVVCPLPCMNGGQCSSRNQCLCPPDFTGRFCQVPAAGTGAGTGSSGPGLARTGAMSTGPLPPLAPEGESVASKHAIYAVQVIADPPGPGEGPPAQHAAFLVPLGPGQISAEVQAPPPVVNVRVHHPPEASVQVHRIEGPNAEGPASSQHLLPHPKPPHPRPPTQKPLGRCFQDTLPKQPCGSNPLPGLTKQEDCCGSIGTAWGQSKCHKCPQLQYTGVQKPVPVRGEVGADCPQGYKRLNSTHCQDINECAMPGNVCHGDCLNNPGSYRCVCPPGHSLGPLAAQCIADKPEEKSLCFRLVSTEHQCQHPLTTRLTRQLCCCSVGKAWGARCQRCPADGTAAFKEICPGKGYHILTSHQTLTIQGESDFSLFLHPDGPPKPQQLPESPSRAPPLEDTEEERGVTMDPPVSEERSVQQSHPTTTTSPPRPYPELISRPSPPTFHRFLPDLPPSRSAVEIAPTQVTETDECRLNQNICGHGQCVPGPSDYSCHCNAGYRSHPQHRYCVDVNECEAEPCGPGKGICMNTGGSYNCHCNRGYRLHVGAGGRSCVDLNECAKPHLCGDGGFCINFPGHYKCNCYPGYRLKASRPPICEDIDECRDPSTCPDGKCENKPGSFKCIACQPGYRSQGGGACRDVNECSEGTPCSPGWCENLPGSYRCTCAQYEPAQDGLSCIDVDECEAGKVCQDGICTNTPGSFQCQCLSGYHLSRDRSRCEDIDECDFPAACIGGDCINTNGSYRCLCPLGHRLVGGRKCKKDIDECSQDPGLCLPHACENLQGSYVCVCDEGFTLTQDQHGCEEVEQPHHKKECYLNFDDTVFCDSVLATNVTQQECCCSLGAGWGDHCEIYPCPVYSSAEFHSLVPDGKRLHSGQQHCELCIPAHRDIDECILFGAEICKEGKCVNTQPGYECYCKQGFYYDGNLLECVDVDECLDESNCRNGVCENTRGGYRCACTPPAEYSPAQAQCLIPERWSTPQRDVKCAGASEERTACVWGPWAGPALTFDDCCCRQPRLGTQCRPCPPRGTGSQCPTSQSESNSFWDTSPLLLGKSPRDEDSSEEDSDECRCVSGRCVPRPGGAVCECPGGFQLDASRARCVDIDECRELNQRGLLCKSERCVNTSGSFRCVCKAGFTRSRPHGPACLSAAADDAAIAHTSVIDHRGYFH
T4 sequence (P04202 30-390 limits assumed, chain 2 of 2): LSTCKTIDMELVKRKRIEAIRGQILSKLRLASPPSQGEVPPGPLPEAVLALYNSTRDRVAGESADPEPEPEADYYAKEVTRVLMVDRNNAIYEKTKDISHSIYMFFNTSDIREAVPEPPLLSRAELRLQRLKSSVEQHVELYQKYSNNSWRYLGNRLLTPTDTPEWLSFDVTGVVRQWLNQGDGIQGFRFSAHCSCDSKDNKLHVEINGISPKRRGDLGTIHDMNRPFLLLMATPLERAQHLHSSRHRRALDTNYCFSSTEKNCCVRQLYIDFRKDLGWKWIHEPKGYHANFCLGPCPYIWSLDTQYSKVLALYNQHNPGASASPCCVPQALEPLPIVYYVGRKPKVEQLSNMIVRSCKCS
T7 sequence (Q86YC3 19-650 limits assumed, chain 1 of 2): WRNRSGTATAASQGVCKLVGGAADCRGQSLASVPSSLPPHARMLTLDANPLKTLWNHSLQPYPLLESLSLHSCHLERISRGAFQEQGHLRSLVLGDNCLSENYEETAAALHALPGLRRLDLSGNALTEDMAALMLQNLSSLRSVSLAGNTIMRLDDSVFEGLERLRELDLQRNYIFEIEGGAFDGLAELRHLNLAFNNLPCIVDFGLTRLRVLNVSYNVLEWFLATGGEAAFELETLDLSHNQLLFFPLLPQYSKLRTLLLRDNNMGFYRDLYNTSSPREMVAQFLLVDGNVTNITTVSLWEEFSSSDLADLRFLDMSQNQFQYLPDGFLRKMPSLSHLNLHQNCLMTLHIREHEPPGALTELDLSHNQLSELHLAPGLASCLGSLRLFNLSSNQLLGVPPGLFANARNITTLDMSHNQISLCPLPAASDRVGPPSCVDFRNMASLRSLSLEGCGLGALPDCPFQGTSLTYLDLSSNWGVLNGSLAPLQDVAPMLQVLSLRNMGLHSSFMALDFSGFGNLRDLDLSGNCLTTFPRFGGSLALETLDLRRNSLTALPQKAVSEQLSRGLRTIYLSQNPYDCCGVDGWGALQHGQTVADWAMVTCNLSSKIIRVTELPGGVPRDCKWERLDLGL
T7 sequence (P01137 30-390 limits assumed, chain 2 of 2): as the sequence (P01137 30-390 limits assumed, chain 2 of 2) above
T1 sequence (P01137 30-390): as the sequence (P01137 30-390 limits assumed, chain 2 of 2) above

B1: SR-AB22 (antibody, IgG1, V domains shown)
VH: QVQLVESGGGVVQPGRSLRLSCAASGFTFRSYVMHWVRQAPGKGLEWVAVISHEGSLKYYADSVKGRFTISRDNSKNTLYLQMNSLRAEDTAVYYCAVPRIAARRGGFGYWGQGTLVTVSS
VL: NFMLTQPHSVSESPGKTVTISCTRSSGNIDNNYVQWYQQRPGSSPTTVIYEDNQRPSGVPDRFSGSIDSSSNSASLTISGLKTEDEADYYCQSYDSDNQGVVFGGGTKLTVL
notes: Cycle 2, lineage SR-AB14
Regarding B1, the “IC50, endogenous hLTBP assay (CAGA12 luciferase)” value in experiment [1] was 4.62 nM. In addition, the “IC50, mLTBP1 assay (CAGA12 luciferase)” value in experiment [2] was determined as 1.39 nM. Further, the Kd in [3] amounted to 1.88 nM; in experiment [4], 2.43 nM; in experiment [5], 1.56 nM.

B2: SR-AB47-HuFab (Fab, V domains shown)
VH: B1 VH with L57G, V98R, Y110S
VL: B1 VL with N31Y, Q54V, S96Y, G100A
notes: Human Fab; also called SR-AB47 Fab
With B2, the Kd amounted to 0.074 nM in experiment [6]; 0.217 nM in experiment [7]; 0.33 nM in [8]; 0.198 nM in [9]; 0.4 nM in [10]; 6.5 nM in experiment [11]. For the same molecule, the Kd in experiment [12] was 6.66 nM; in experiment [13], 1.95 nM; in experiment [14] it was 9.16 nM. Further, in [6], the koff was found to be 0.000136 s⁻¹. Also, the kon in experiment [6] came to 1.84e+06 M⁻¹ s⁻¹.

B3: SR-AB43-HuFab (Fab, V domains shown)
VH: B1 VH with V98R
VL: B1 VL with N31Y, Q54V, G100R
notes: Human Fab; also called SR-AB43 Fab
In experiment [6], B3 gave a Kd of 0.276 nM, a koff of 0.000284 s⁻¹ and an on-rate constant (kon) of 1.03e+06 M⁻¹ s⁻¹. Besides, the affinity in experiment [15], expressed as Kd, was 4.43 nM.

B4: SR-AB49-HuFab (Fab, V domains shown)
VH: B1 VH with L57G, V98R, Y110S
VL: B1 VL with N31Y, Q54V, S93G, S96W, N98T
notes: Human Fab; also called SR-AB49 Fab
Turning to B4, the Kd in [6] was found to be 0.17 nM; in experiment [7], 0.319 nM; in [8], 0.58 nM; in experiment [9] it was 0.379 nM; in experiment [10], 0.65 nM; in experiment [11] it was 6.55 nM. For the same molecule, the Kd in [12] was determined as 7.7 nM; in [13] it was 2.82 nM; in experiment [14] it was 6.95 nM. The same molecule yielded a koff in [6] of 0.000138 s⁻¹. The molecule further had an on-rate constant (kon) in experiment [6] of 809000 M⁻¹ s⁻¹.

B5: SR-AB62 (antibody, IgG1, V domains shown)
VH: QLQLQESGPGLAKPSETLSLTCTVSGGSIRSSSYYWGWIRQPPGKGLEWIGSISYSATTYYNPSLKSRVTISVDTSKNQFSLKLSSVTAADTAVYYCASDPSYDSAAGMDVWGQGTTVTVSS
VL: DIQMTQSPSSLSASVGDRVTITCRASKVISSYLNWYQQKPGKAPKLLIYYASSLQSGVPSRFSGSGSGTDFTLTISSLQPEDFATYYCQQSNDWPFTFGGGTKVEIK
notes: Cycle 3, lineage SR-AB24
On to B5, for which the “IC50, endogenous hLTBP assay (CAGA12 luciferase)” value in experiment [16] was determined as 8.68 nM. For the same molecule, the “IC50, mLTBP1 assay (CAGA12 luciferase)” value in experiment [17] is 0.386 nM. For the same molecule, the Kd in [18] was found to be 0.486 nM; in experiment [19], 0.368 nM; in experiment [20] it was 0.609 nM; in [21], 3.37 nM. In addition, the koff in experiment [18] stood at 6.82e-05 s⁻¹; in experiment [19], 7.47e-05 s⁻¹. The kon in [18] stood at 140000 M⁻¹ s⁻¹; in experiment [19], 203000 M⁻¹ s⁻¹. In addition, in experiment [22], the binding result is recorded as “no binding (tested: 200 nM)”.
